T1: IFN-γ receptor (IFNGR; IFNGR1 and IFNGR2) on human cells (human) (UniProt P15260)
T1 sequence (looked up) 1: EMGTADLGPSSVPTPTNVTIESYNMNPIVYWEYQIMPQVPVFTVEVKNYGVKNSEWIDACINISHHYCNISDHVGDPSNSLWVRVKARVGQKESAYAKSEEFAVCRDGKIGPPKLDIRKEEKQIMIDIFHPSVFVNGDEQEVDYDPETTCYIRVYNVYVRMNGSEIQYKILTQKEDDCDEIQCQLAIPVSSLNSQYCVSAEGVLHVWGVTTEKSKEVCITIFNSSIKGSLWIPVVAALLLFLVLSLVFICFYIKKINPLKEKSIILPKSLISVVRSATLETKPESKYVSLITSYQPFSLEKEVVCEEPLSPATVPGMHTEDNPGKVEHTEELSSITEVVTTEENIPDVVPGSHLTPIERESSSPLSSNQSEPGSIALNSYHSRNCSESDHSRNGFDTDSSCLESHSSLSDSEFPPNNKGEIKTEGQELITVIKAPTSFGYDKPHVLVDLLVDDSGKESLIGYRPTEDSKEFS
T1 sequence (looked up) 2: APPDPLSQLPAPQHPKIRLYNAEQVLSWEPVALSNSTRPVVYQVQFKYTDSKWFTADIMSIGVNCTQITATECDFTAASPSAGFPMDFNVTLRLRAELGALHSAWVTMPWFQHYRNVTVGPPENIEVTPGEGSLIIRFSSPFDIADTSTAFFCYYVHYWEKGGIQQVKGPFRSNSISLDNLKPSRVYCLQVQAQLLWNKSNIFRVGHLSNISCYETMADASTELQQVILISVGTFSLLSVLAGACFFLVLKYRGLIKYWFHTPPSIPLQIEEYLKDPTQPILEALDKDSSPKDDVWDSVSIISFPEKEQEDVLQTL

T2: IFN-γ receptor (IFNGR; IFNGR1 and IFNGR2) on human cells (human, UniProt P15260 18-489; P38484 22-337)
T2 sequence (looked up) 1: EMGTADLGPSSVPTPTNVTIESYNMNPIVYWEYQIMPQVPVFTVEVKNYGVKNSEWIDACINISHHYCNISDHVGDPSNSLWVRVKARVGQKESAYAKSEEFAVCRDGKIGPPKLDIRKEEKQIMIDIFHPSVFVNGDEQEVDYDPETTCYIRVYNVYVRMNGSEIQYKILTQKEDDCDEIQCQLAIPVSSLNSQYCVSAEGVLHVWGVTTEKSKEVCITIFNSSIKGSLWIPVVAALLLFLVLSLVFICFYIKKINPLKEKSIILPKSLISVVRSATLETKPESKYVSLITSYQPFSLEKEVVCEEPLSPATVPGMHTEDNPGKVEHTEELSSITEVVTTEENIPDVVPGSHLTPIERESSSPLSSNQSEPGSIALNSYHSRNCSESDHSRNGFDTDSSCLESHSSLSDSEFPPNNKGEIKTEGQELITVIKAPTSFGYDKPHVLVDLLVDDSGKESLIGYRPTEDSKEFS
T2 sequence (looked up) 2: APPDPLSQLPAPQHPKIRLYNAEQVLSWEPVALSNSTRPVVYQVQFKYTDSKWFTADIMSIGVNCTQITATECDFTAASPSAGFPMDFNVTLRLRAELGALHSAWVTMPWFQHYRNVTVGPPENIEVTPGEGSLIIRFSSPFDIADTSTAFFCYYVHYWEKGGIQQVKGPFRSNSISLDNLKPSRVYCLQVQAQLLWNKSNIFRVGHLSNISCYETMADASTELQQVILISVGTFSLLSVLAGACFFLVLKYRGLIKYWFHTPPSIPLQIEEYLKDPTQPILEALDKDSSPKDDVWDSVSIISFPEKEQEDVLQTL

T3: IFNγR1 fused to the constant region of the antibody IgG1 (UniProt P15260 18-245, limits assumed)
T3 construct: also called IFNGR1; Interferon gamma receptor 1 fused to the Fc region; not shown: constant region (Fc) of IgG1, captured on the chip by an anti-human IgG antibody
T3 sequence (looked up): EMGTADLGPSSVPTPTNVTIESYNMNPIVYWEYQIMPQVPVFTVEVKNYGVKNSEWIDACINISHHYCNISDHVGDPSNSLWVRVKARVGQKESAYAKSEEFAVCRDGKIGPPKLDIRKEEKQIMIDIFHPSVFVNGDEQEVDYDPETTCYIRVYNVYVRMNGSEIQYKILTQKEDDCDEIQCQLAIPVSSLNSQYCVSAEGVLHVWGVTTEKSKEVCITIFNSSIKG

B1: rhIFN-γ-1b (wild-type recombinant human interferon-γ-1b) (ligand)
chain: MQDPYVKEAENLKKYFNAGHSDVADNGTLFLGILKNWKEESDRKIMQSQIVSFYFKLFKNFKDDQSIQKSVETIKEDMNVKFFNSNKKKRDDFEKLTNYSVTDLNVQRKAIHELIQVMAELSPAAKTGKRKRSQMLFRGR
notes: also called wt (rhIFN-γ-1b); WT IFN-γ-1b (Actimmune)
B2: rhIFN-γ-1b-S66C cysteine mutein (ligand)
chain: MQDPYVKEAENLKKYFNAGHSDVADNGTLFLGILKNWKEESDRKIMQSQIVSFYFKLFKNFKDDQCIQKSVETIKEDMNVKFFNSNKKKRDDFEKLTNYSVTDLNVQRKAIHELIQVMAELSPAAKTGKRKRSQMLFRGR
notes: also called IFN-γ-S66C; hIFN-γ S66C
B3: Compound 3, mono-mPEG2-ru-MAL-20K-rhIFN-γ-1b-M135C (ring closed) (ligand)
chain: MQDPYVKEAENLKKYFNAGHSDVADNGTLFLGILKNWKEESDRKIMQSQIVSFYFKLFKNFKDDQSIQKSVETIKEDMNVKFFNSNKKKRDDFEKLTNYSVTDLNVQRKAIHELIQVMAELSPAAKTGKRKRSQCLFRGR
modifications: Cys135 thioether-linked to branched mPEG2-maleimide of about 20,000 daltons (mPEG2-MAL-20K), succinimide ring closed
notes: also called mPEG2-MAL-20K-M135C-IFN-γ; M135C 20K branched (RC)
B4: rhIFN-γ-1b-N98C cysteine mutein (ligand)
chain: MQDPYVKEAENLKKYFNAGHSDVADNGTLFLGILKNWKEESDRKIMQSQIVSFYFKLFKNFKDDQSIQKSVETIKEDMNVKFFNSNKKKRDDFEKLTCYSVTDLNVQRKAIHELIQVMAELSPAAKTGKRKRSQMLFRGR
B5: Compound 2, mono-mPEG-MAL-20K-rhIFN-γ-1b-M135C (ligand)
chain: MQDPYVKEAENLKKYFNAGHSDVADNGTLFLGILKNWKEESDRKIMQSQIVSFYFKLFKNFKDDQSIQKSVETIKEDMNVKFFNSNKKKRDDFEKLTNYSVTDLNVQRKAIHELIQVMAELSPAAKTGKRKRSQCLFRGR
modifications: Cys135 thioether-linked to linear mPEG-maleimide of about 20,000 daltons (mPEG-MAL-20K), succinimide ring closed
notes: also called mPEG-MAL-20K-M135C-IFN-γ; M135C 20K linear
B6: Compound 1, mono-mPEG-MAL-10K-rhIFN-γ-1b-M135C (ligand)
chain: MQDPYVKEAENLKKYFNAGHSDVADNGTLFLGILKNWKEESDRKIMQSQIVSFYFKLFKNFKDDQSIQKSVETIKEDMNVKFFNSNKKKRDDFEKLTNYSVTDLNVQRKAIHELIQVMAELSPAAKTGKRKRSQCLFRGR
modifications: Cys135 thioether-linked to linear mPEG-maleimide of about 10,000 daltons (mPEG-MAL-10K), succinimide ring closed
notes: also called mPEG-MAL-10K-M135C-IFN-γ; M135C 10K linear
B7: rhIFN-γ-1b-M135C cysteine mutein (ligand)
chain: MQDPYVKEAENLKKYFNAGHSDVADNGTLFLGILKNWKEESDRKIMQSQIVSFYFKLFKNFKDDQSIQKSVETIKEDMNVKFFNSNKKKRDDFEKLTNYSVTDLNVQRKAIHELIQVMAELSPAAKTGKRKRSQCLFRGR
notes: also called IFN-γ-M135C; hIFN-γ M135C

Key:
[1] = biological target: T1, IFN-γ receptor (IFNGR; IFNGR1 and IFNGR2) on human cells (human); test: cell-based or functional assay
[2] = biological target: T2, IFN-γ receptor (IFNGR; IFNGR1 and …); test: cell-based or functional assay
[3] = biological target: T2, IFN-γ receptor (IFNGR; IFNGR1 and …); test: cell-based or functional assay; remark: listed apart in the source
[4] = biological target: T3, IFNγR1 fused to the constant region of …; test: SPR (Biacore, CM5 chip), IFNγR1-IgG1 Fc captured by anti-human IgG, analyte injected
Description: Briefly, the surface of a BAcore™ CM5 sensor chip was coated with anti-human IgG antibody comprising IFNγR1 fused to the constant region of the antibody IgG₁.
Each of the IFN-γ-b protein, the M135C, S98C, and S66C cysteine muteins, and Compounds 1, 2, and 3 were separately injected onto the sensor chip which was coated with IFNγR1. The affinities were measured by determining the kinetic on-rate (kₒₙ) and the kinetic off-rate (koff) rates separately, and the ratio between kₒₙ and koff was used to calculate the Kd values with the results shown in Table 9.

[5] = biological target: T3, IFNγR1 fused to the constant region of …; test: SPR (Biacore, CM5 chip), IFNγR1-IgG1 Fc captured by anti-human IgG

EC50 in HT-29 cells, MHCI [2] [ng/mL]	EC50 in HT-29 cells, MHCII [2] [ng/mL]	EC50 in HT-29 cells, PD-L1 [2] [ng/mL]	EC50 in HT-29 cells, pSTAT1 [2] [ng/mL]	EC50 (ng/mL)-% pSTAT1, CD14+CD16+ (Intermediate) monocytes of human PBMCs [3] [ng/mL]	EC50 (ng/mL)-% pSTAT1, CD14+CD16- (Classical) monocytes of human PBMCs [3] [ng/mL]	EC50 (ng/mL)-% pSTAT1, CD14loCD16hi (Non-classical) monocytes of human PBMCs [3] [ng/mL]	EC50 (ng/mL)-MFI of pSTAT1, Classical monocytes of human PBMCs [3] [ng/mL]	EC50 (ng/mL)-MFI of pSTAT1, Intermediate monocytes of human PBMCs [3] [ng/mL]	EC50 (ng/mL)-MFI of pSTAT1, Non-classical monocytes of human PBMCs [3] [ng/mL]	Kd [4] [pM]	koff [4] [s⁻¹]	kon [4] [M⁻¹ s⁻¹]	further results	Molecule
–	–	–	–	–	–	–	–	–	–	–	–	–	EC50 in HT-29 cells, MHCI [1]: 0.023 ng/mL; EC50 in HT-29 cells, MHCII [1]: 0.27 ng/mL; EC50 in HT-29 cells, PD-L1 [1]: 0.37 ng/mL; EC50 in HT-29 cells, pSTAT1 [1]: 1.3 ng/mL	Compound 5, mono-mPEG2-MAL-20K-rhIFN-γ-1b-S66C (from UniProt P01579 24-162) (ligand)
–	–	–	–	–	–	–	–	–	–	–	–	–	EC50 in HT-29 cells, MHCI (Compound 7 (1)) [1]: 5.3 ng/mL; EC50 in HT-29 cells, MHCII (Compound 7 (1)) [1]: 150 ng/mL; EC50 in HT-29 cells, PD-L1 (Compound 7 (1)) [1]: 190 ng/mL; EC50 in HT-29 cells, pSTAT1 (Compound 7 (2)) [1]: 969 ng/mL	Compound 7, ring-opened mono-mPEG2-MAL-20K-rhIFN-γ-1b-M135C (from UniProt P01579 24-162) (ligand)
–	–	–	–	–	–	–	–	–	–	–	–	–	EC50 (ng/mL)-% pSTAT1, CD14+CD16+ (Intermediate) monocytes of human PBMCs [1]: 10.1 ng/mL; EC50 (ng/mL)-% pSTAT1, CD14+CD16- (Classical) monocytes of human PBMCs [1]: 32.6 ng/mL; EC50 (ng/mL)-% pSTAT1, CD14loCD16hi (Non-classical) monocytes of human PBMCs [1]: 11.7 ng/mL; EC50 (ng/mL)-MFI of pSTAT1, Classical monocytes of human PBMCs [1]: 152 ng/mL; EC50 (ng/mL)-MFI of pSTAT1, Intermediate monocytes of human PBMCs [1]: 84.2 ng/mL; EC50 (ng/mL)-MFI of pSTAT1, Non-classical monocytes of human PBMCs [1]: 97.5 ng/mL; EC50 in HT-29 cells, MHCI [1]: 0.3 ng/mL; EC50 in HT-29 cells, MHCII [1]: 3.1 ng/mL; EC50 in HT-29 cells, PD-L1 [1]: 3.6 ng/mL; EC50 in HT-29 cells, pSTAT1 [1]: 180 ng/mL	Compound 4, mono-mPEG2-MAL-40K-rhIFN-γ-1b-M135C (from UniProt P01579 24-162) (ligand)
–	–	–	–	–	–	–	–	–	–	–	–	–	EC50 in HT-29 cells, MHCI [1]: 0.047 ng/mL; EC50 in HT-29 cells, MHCII [1]: 0.86 ng/mL; EC50 in HT-29 cells, PD-L1 [1]: 1.3 ng/mL; EC50 in HT-29 cells, pSTAT1 [1]: 1.2 ng/mL	Compound 6, mono-mPEG2-MAL-20K-rhIFN-γ-1b-N98C (from UniProt P01579 24-162) (ligand)
0.079	0.53	0.69	1	0.015	0.035	0.018	0.3	0.24	0.26	65.5	0.000701	1.07e+07	–	B1
–	–	–	1.5	–	–	–	–	–	–	534	0.00137	2.57e+06	–	B2
0.17	1.8	2.2	89	4.38	14	4.84	64.2	32.7	35	4900	0.00157	321000	–	B3
–	–	–	1.7	–	–	–	–	–	–	–	–	–	–	B4
0.076	0.7	1.2	14	0.179	1.45	0.367	7.62	4.28	4.57	1880	0.00106	637000	–	B5
0.099	0.83	1.1	11	0.084	0.222	0.106	2.16	0.85	0.99	1420	0.00221	1.61e+06	fold decrease in affinity against IFN-γ-M135C [5]: ~10 fold	B6
–	–	–	1.4	–	–	–	–	–	–	123	–	–	–	B7
